Reference: patent US20190241648A1 (STATEN BIOTECHNOLOGY B V, published 2019)
Ends that are not written are not given here.

Key:
Experiment in all cases: cyclic peptide substitution array
[1] = molecular target: T1, ApoC3 peptide P69H (human, not fully specified; cyclic (thioether))
T1 peptide: DKFSEFWDLDHEV
Excerpt: (§1) S62 and D68 of mature huApoC3 were also highly conserved; substitution of S62 by A or V, and substitution of D68 by E or P, caused decrease of spot intensities by ˜60% or higher. […] Amino acid F64 was completely variable.
(§2) Pre: staining of one of the ApoC3 peptide microarrays was done with the secondary antibody goat anti-human IgG (Fe) DyLight680 (1:5000) and control antibody mouse monoclonal anti-HA (12CA5) DyLight800 (1:2000) to investigate background interactions of the secondary antibody with the antigen-derived peptides that could interfere with the main assays. Subsequent incubation of other ApoC3 peptide microarrays with antibody samples was followed by staining with secondary and control antibodies as well as read-out at scanning intensities of 7/7 (red/green). The additional HA peptides framing the peptide arrays were stained as internal quality control to confirm the assay quality and the peptide microarray integrity.

[2] = molecular target: T2, ApoC3 peptide F61W (human, cyclic (thioether))
T2 peptide: DKWSEFWDLDPEV
Excerpt: as §1, §2

[3] = molecular target: T3, ApoC3 peptide S62C (human, not fully specified; cyclic (thioether))
T3 peptide: DKFCEFWDLDPEV
Excerpt: as §1, §2

[4] = molecular target: T4, ApoC3 peptide V71E (human, thioether (positions not given here); also: cyclic (thioether), ring places not given here)
T4 peptide: DKFSEFWDLDPEE
Excerpt: as §1, §2

[5] = molecular target: T5, ApoC3 peptide E63F (human, not fully specified; cyclic (thioether))
T5 peptide: DKFSFFWDLDPEV
Excerpt: as §1, §2

[6] = molecular target: T6, ApoC3 peptide F64G (human, thioether (positions not given here); not fully specified (bridges); also: cyclic (thioether), positions not given here)
T6 peptide: DKFSEGWDLDPEV
Excerpt: as §1, §2

[7] = molecular target: T7, ApoC3 peptide V71W (human, not fully specified; cyclic (thioether))
T7 peptide: DKFSEFWDLDPEW
Excerpt: as §1, §2

[8] = molecular target: T8, ApoC3 peptide V71M (human, thioether (positions not given here); also: cyclic (thioether), ring places not given here)
T8 peptide: DKFSEFWDLDPEM
Excerpt: as §1, §2

[9] = molecular target: T9, ApoC3 peptide D66H (human, not fully specified; cyclic (thioether))
T9 peptide: DKFSEFWHLDPEV
Excerpt: as §1, §2

[10] = molecular target: T10, ApoC3 peptide D66C (human, not fully specified; cyclic (thioether))
T10 peptide: DKFSEFWCLDPEV
Excerpt: as §1, §2

[11] = molecular target: T11, ApoC3 peptide E70N (human, cyclic (thioether))
T11 peptide: DKFSEFWDLDPNV
Excerpt: as §1, §2

[12] = molecular target: T12, ApoC3 peptide F64T (human, thioether (positions not given here); not fully specified (bridges); also: cyclic (thioether), positions not given here)
T12 peptide: DKFSETWDLDPEV
Excerpt: as §1, §2

[13] = molecular target: T13, ApoC3 peptide F61R (human, cyclic (thioether))
T13 peptide: DKRSEFWDLDPEV
Excerpt: as §1, §2

[14] = molecular target: T14, ApoC3 peptide E63P (human, cyclic (thioether))
T14 peptide: DKFSPFWDLDPEV
Excerpt: as §1, §2

[15] = molecular target: T15, ApoC3 peptide S62I (human, thioether (positions not given here); also: cyclic (thioether), ring places not given here)
T15 peptide: DKFIEFWDLDPEV
Excerpt: as §1, §2

[16] = molecular target: T16, ApoC3 peptide F61H (human, cyclic (thioether))
T16 peptide: DKHSEFWDLDPEV
Excerpt: as §1, §2

[17] = molecular target: T17, ApoC3 peptide D59S (human, thioether (positions not given here); not fully specified (C-terminus, bridges); also: cyclised via thioether between a C-terminal Cys and a modified N-terminus, the Cys and the N-terminal …)
T17 peptide: SKFSEFWDLDPEV
Excerpt: as §1, §2

[18] = molecular target: T18, ApoC3 peptide D66L (human, not fully specified; cyclic (thioether))
T18 peptide: DKFSEFWLLDPEV
Excerpt: as §1, §2

[19] = molecular target: T19, ApoC3 peptide E63V (human, cyclic (thioether))
T19 peptide: DKFSVFWDLDPEV
Excerpt: as §1, §2

[20] = molecular target: T20, ApoC3 peptide F64I (human, thioether (positions not given here); not fully specified (bridges); also: cyclic (thioether), positions not given here)
T20 peptide: DKFSEIWDLDPEV
Excerpt: as §1, §2

[21] = molecular target: T21, ApoC3 peptide V71D (human, thioether (positions not given here); also: cyclic (thioether), ring places not given here)
T21 peptide: DKFSEFWDLDPED
Excerpt: as §1, §2

[22] = molecular target: T22, ApoC3 peptide D68A (human, cyclic (thioether))
T22 peptide: DKFSEFWDLAPEV
Excerpt: as §1, §2

[23] = molecular target: T23, ApoC3 peptide K60V (human, cyclic (thioether))
T23 peptide: DVFSEFWDLDPEV
Excerpt: as §1, §2

[24] = molecular target: T24, ApoC3 peptide L67T (human, thioether (positions not given here); not fully specified (bridges); also: thioether between a C-terminal Cys side chain and a modified N-terminus, the Cys is not in the chain)
T24 peptide: DKFSEFWDTDPEV
Excerpt: as §1, §2

[25] = molecular target: T25, ApoC3 peptide L67V (human, thioether (positions not given here); not fully specified (bridges); also: thioether between a C-terminal Cys side chain and a modified N-terminus, the Cys is not in the chain)
T25 peptide: DKFSEFWDVDPEV
Excerpt: as §1, §2

[26] = molecular target: T26, ApoC3 peptide F61L (human, cyclic (thioether))
T26 peptide: DKLSEFWDLDPEV
Excerpt: as §1, §2

[27] = molecular target: T27, ApoC3 peptide D68Y (human, cyclic (thioether))
T27 peptide: DKFSEFWDLYPEV
Excerpt: as §1, §2

[28] = molecular target: T28, ApoC3 peptide E63C (human, not fully specified; cyclic (thioether))
T28 peptide: DKFSCFWDLDPEV
Excerpt: as §1, §2

[29] = molecular target: T29, ApoC3 peptide E63H (human, cyclic (thioether))
T29 peptide: DKFSHFWDLDPEV
Excerpt: as §1, §2

[30] = molecular target: T30, ApoC3 peptide K60E (human, cyclic (thioether))
T30 peptide: DEFSEFWDLDPEV
Excerpt: as §1, §2

[31] = molecular target: T31, ApoC3 peptide D68T (human, cyclic (thioether))
T31 peptide: DKFSEFWDLTPEV
Excerpt: as §1, §2

B1: Llama antibody 5E5 (antibody, V domains shown)
VH: QLQLVESGGGLVQPGGSLRLSCAASGFTFGTYSMRWVRQVPRKALEWVSSISTDGGGTAYRDSVKGRFTISRDNAKNTLYLQMNNLKPEDTAIYYCVIAGYSDWGQGTQVTVSS
VL: ATMLTQSPGSLSVVPGESASISCKTSQGLVHSDGKTYFYWFLQKPGQSPQQLIYQVSNRASGVPDRFTGSGSGTDFTLKISGVKAEDAGVYYCAQGTYYPHTFGSGTRLEIK
notes: detected with goat anti-human IgG (Fc); also called mAb 5E5
- % of binding to wild-type peptide [1]: 10.7%
- % of binding to wild-type peptide [2]: 15.7%
- % of binding to wild-type peptide [3]: 0%
- % of binding to wild-type peptide [4]: 127%
- % of binding to wild-type peptide [5]: 57.1%
- % of binding to wild-type peptide [6]: 212%
- % of binding to wild-type peptide [7]: 68.7%
- % of binding to wild-type peptide [8]: 138%
- % of binding to wild-type peptide [9]: 0%
- % of binding to wild-type peptide [10]: 10.3%
- % of binding to wild-type peptide [11]: 49.6%
- % of binding to wild-type peptide [12]: 467%
- % of binding to wild-type peptide [13]: 2.77%
- % of binding to wild-type peptide [14]: 81.2%
- % of binding to wild-type peptide [15]: 0.64%
- % of binding to wild-type peptide [16]: 12.1%
- % of binding to wild-type peptide [17]: 57.7%
- % of binding to wild-type peptide [18]: 0%
- % of binding to wild-type peptide [19]: 4.2%
- % of binding to wild-type peptide [20]: 69.3%
- % of binding to wild-type peptide [21]: 111%
- % of binding to wild-type peptide [22]: 1.75%
- % of binding to wild-type peptide [23]: 101%
- % of binding to wild-type peptide [24]: 168%
- % of binding to wild-type peptide [25]: 84.8%
- % of binding to wild-type peptide [26]: 63.4%
- % of binding to wild-type peptide [27]: 0.16%
- % of binding to wild-type peptide [28]: 2.3%
- % of binding to wild-type peptide [29]: 49.9%
- % of binding to wild-type peptide [30]: 362%
- % of binding to wild-type peptide [31]: 0.65%
